Experimental data published in paper PMC4847776, “Mutagenesis of mNeptune Red-Shifts Emission Spectrum to 681-685 nm” (PLoS ONE, 2016).

Experiments:
Test in all cases: SEC; Superdex 200 10/300 GL column, PBS (pH 7.4), protein approximate 3–4 mg/ml; elution volume compared with mNeptune (monomer standard) and eqFP670 (dimer standard)
mNeptune681_Q159Y = target: mNeptune681_Q159Y
mNeptune681_Q159F = target: mNeptune681_Q159F
eqFP670 = target: eqFP670
mNeptune681_Q159C = target: T1, mNeptune681_Q159C; details: both partners purified
T1 chain: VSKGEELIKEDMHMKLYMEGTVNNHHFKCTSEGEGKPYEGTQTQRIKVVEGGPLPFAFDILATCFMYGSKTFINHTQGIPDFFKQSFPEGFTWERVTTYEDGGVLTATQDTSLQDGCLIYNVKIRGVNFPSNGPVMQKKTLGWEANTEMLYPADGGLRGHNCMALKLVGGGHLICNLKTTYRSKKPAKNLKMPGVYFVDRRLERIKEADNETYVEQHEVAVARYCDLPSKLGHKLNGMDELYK

mNeptune681_Q159W = target: T2, mNeptune681_Q159W; details: both partners purified
T2 chain: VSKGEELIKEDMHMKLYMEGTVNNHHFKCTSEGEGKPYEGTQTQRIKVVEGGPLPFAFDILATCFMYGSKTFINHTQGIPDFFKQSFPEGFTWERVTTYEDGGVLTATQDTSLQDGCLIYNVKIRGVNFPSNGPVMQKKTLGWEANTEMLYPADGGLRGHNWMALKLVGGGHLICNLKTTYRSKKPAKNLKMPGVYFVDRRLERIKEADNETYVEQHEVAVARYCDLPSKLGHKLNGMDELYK

mNeptune681_Q159I = target: T3, mNeptune681_Q159I; details: both partners purified
T3 chain: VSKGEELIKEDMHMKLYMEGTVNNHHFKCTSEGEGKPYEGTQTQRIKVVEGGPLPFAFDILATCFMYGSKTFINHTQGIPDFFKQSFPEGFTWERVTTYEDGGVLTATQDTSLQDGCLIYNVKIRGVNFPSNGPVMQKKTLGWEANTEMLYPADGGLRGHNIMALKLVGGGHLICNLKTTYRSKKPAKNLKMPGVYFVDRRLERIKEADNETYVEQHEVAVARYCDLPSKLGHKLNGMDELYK

mNeptune681_Q159L = target: T4, mNeptune681_Q159L; details: both partners purified
T4 chain: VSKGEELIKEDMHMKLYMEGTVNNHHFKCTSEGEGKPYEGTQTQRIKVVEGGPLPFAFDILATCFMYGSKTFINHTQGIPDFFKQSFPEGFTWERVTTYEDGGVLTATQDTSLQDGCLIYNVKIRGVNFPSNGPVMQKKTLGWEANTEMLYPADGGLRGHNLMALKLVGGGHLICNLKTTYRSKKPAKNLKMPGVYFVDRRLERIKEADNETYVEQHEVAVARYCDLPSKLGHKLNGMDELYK

mNeptune681_Q159M = target: T5, mNeptune681_Q159M; details: both partners purified
T5 chain: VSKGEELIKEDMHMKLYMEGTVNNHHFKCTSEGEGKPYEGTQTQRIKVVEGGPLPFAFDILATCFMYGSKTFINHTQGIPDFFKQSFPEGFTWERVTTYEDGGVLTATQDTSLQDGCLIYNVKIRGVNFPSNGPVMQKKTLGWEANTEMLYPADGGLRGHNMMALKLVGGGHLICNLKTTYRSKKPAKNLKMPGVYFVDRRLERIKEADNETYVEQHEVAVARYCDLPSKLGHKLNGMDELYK

mNeptune681_Q159T = target: T6, mNeptune681_Q159T; details: both partners purified
T6 chain: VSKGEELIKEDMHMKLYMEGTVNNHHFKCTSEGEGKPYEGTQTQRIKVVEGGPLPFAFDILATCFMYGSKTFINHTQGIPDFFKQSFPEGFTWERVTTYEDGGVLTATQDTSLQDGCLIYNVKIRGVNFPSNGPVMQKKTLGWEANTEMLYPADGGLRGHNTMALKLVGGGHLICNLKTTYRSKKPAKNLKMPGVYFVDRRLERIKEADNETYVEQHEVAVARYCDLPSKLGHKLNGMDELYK

mNeptune681_Q159V = target: T7, mNeptune681_Q159V; details: both partners purified
T7 chain: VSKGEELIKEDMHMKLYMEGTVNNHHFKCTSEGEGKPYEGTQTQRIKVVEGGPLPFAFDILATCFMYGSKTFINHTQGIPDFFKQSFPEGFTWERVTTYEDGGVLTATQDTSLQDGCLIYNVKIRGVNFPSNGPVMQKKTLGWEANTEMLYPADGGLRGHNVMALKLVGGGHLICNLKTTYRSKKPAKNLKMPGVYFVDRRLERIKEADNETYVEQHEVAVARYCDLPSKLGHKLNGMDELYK

mNeptune681_Q159Y
stoichiometry N (mNeptune681_Q159Y): 2

mNeptune681_Q159F
stoichiometry N (mNeptune681_Q159F): 2

eqFP670
stoichiometry N (eqFP670): 2

B1: mNeptune681_Q159C (other)
chain: VSKGEELIKEDMHMKLYMEGTVNNHHFKCTSEGEGKPYEGTQTQRIKVVEGGPLPFAFDILATCFMYGSKTFINHTQGIPDFFKQSFPEGFTWERVTTYEDGGVLTATQDTSLQDGCLIYNVKIRGVNFPSNGPVMQKKTLGWEANTEMLYPADGGLRGHNCMALKLVGGGHLICNLKTTYRSKKPAKNLKMPGVYFVDRRLERIKEADNETYVEQHEVAVARYCDLPSKLGHKLNGMDELYK
modifications: autocatalytic Met-Tyr-Gly chromophore / autocatalytic Met-Tyr-Gly chromophore
stoichiometry N (mNeptune681_Q159C): 2

B2: mNeptune681_Q159W (other)
chain: VSKGEELIKEDMHMKLYMEGTVNNHHFKCTSEGEGKPYEGTQTQRIKVVEGGPLPFAFDILATCFMYGSKTFINHTQGIPDFFKQSFPEGFTWERVTTYEDGGVLTATQDTSLQDGCLIYNVKIRGVNFPSNGPVMQKKTLGWEANTEMLYPADGGLRGHNWMALKLVGGGHLICNLKTTYRSKKPAKNLKMPGVYFVDRRLERIKEADNETYVEQHEVAVARYCDLPSKLGHKLNGMDELYK
modifications: autocatalytic Met-Tyr-Gly chromophore / autocatalytic Met-Tyr-Gly chromophore
stoichiometry N (mNeptune681_Q159W): 2

B3: mNeptune681_Q159I (other)
chain: VSKGEELIKEDMHMKLYMEGTVNNHHFKCTSEGEGKPYEGTQTQRIKVVEGGPLPFAFDILATCFMYGSKTFINHTQGIPDFFKQSFPEGFTWERVTTYEDGGVLTATQDTSLQDGCLIYNVKIRGVNFPSNGPVMQKKTLGWEANTEMLYPADGGLRGHNIMALKLVGGGHLICNLKTTYRSKKPAKNLKMPGVYFVDRRLERIKEADNETYVEQHEVAVARYCDLPSKLGHKLNGMDELYK
modifications: autocatalytic Met-Tyr-Gly chromophore / autocatalytic Met-Tyr-Gly chromophore
stoichiometry N (mNeptune681_Q159I): 2

B4: mNeptune681_Q159L (other)
chain: VSKGEELIKEDMHMKLYMEGTVNNHHFKCTSEGEGKPYEGTQTQRIKVVEGGPLPFAFDILATCFMYGSKTFINHTQGIPDFFKQSFPEGFTWERVTTYEDGGVLTATQDTSLQDGCLIYNVKIRGVNFPSNGPVMQKKTLGWEANTEMLYPADGGLRGHNLMALKLVGGGHLICNLKTTYRSKKPAKNLKMPGVYFVDRRLERIKEADNETYVEQHEVAVARYCDLPSKLGHKLNGMDELYK
modifications: autocatalytic Met-Tyr-Gly chromophore / autocatalytic Met-Tyr-Gly chromophore
stoichiometry N (mNeptune681_Q159L): 2

B5: mNeptune681_Q159M (other)
chain: VSKGEELIKEDMHMKLYMEGTVNNHHFKCTSEGEGKPYEGTQTQRIKVVEGGPLPFAFDILATCFMYGSKTFINHTQGIPDFFKQSFPEGFTWERVTTYEDGGVLTATQDTSLQDGCLIYNVKIRGVNFPSNGPVMQKKTLGWEANTEMLYPADGGLRGHNMMALKLVGGGHLICNLKTTYRSKKPAKNLKMPGVYFVDRRLERIKEADNETYVEQHEVAVARYCDLPSKLGHKLNGMDELYK
modifications: autocatalytic Met-Tyr-Gly chromophore / autocatalytic Met-Tyr-Gly chromophore
stoichiometry N (mNeptune681_Q159M): 2

B6: mNeptune681_Q159T (other)
chain: VSKGEELIKEDMHMKLYMEGTVNNHHFKCTSEGEGKPYEGTQTQRIKVVEGGPLPFAFDILATCFMYGSKTFINHTQGIPDFFKQSFPEGFTWERVTTYEDGGVLTATQDTSLQDGCLIYNVKIRGVNFPSNGPVMQKKTLGWEANTEMLYPADGGLRGHNTMALKLVGGGHLICNLKTTYRSKKPAKNLKMPGVYFVDRRLERIKEADNETYVEQHEVAVARYCDLPSKLGHKLNGMDELYK
modifications: autocatalytic Met-Tyr-Gly chromophore / autocatalytic Met-Tyr-Gly chromophore
stoichiometry N (mNeptune681_Q159T): 2

B7: mNeptune681_Q159V (other)
chain: VSKGEELIKEDMHMKLYMEGTVNNHHFKCTSEGEGKPYEGTQTQRIKVVEGGPLPFAFDILATCFMYGSKTFINHTQGIPDFFKQSFPEGFTWERVTTYEDGGVLTATQDTSLQDGCLIYNVKIRGVNFPSNGPVMQKKTLGWEANTEMLYPADGGLRGHNVMALKLVGGGHLICNLKTTYRSKKPAKNLKMPGVYFVDRRLERIKEADNETYVEQHEVAVARYCDLPSKLGHKLNGMDELYK
modifications: autocatalytic Met-Tyr-Gly chromophore / autocatalytic Met-Tyr-Gly chromophore
stoichiometry N (mNeptune681_Q159V): 2
